Test results from patent US20160130303.

T1: PGS-1, YRRAAVPPSPSLSRHSSPSQS(p)EDEEE
T1 chain: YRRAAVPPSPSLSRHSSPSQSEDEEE

T2: p9CREB, ILSRRPS(p)YR
T2 chain: ILSRRPSYR

T3: pIRS-1, RREGGMSRPAS(p)VDG
T3 chain: RREGGMSRPASVDG

T4: L803-mts (not fully specified)
T4 chain: GKEAPPAPPQSP


How the values were obtained:
[1] = biological target: T1, PGS-1, YRRAAVPPSPSLSRHSSPSQS(p)EDEEE
p9CREB, ILSRRPS(p)YR = biological target: T2, p9CREB, ILSRRPS(p)YR
[2] = biological target: T3, pIRS-1, RREGGMSRPAS(p)VDG
L803-mts = biological target: T4, L803-mts

| Protein | Substrate phosphorylation (% of WTGSK-3β) (% of WTGSK-3β) [1] | Substrate phosphorylation (% of WTGSK-3β) (% of WTGSK-3β) (p9CREB, ILSRRPS(p)YR) | Substrate phosphorylation (% of WTGSK-3β) (% of WTGSK-3β) [2] | in vitro kinase assays using pIRS-1, p9CREB, and pGS-1 substrate in the presence or absence of L803-mts (100 µM) (L803-mts) |
| --- | --- | --- | --- | --- |
| GSK-3β F93A mutant (protein) MSGRPRTTSFAESCKPVQQPSAFGSMKVSRDKDGSKVTTVVATPGQGPDRPQEVSYTDTKVIGNGSFGVVYQAKLCDSGELVAIKKVLQDKRAKNRELQIMRKLDHCNIVRLRYFFYSSGEKKDEVYLNLVLDYVPETVYRVARHYSRAKQTLPVIYVKLYMYQLFRSLAYIHSFGICHRDIKPQNLLLDPDTAVLKLCDFGSAKQLVRGEPNVSYICSRYYRAPELIFGATDYTSSIDVWSAGCVLAELLLGQPIFPGDSGVDQLVEIIKVLGTPTREQIREMNPNYTEFKFPQIKAHPWTKDSSGTGHFTSGVRVFRPRTPPEAIALCSRLLEYTPTARLTPLEACAHSFFDELRDPNVKLPNGRDTPALFNFTTQELSSNPPLATILIPPHARIQAAASTPTNATAASDANTGDRGQTNNAASASASNST | 13 | 46 | 42 |  |
| GSK-3β K94A mutant (protein) MSGRPRTTSFAESCKPVQQPSAFGSMKVSRDKDGSKVTTVVATPGQGPDRPQEVSYTDTKVIGNGSFGVVYQAKLCDSGELVAIKKVLQDKRFANRELQIMRKLDHCNIVRLRYFFYSSGEKKDEVYLNLVLDYVPETVYRVARHYSRAKQTLPVIYVKLYMYQLFRSLAYIHSFGICHRDIKPQNLLLDPDTAVLKLCDFGSAKQLVRGEPNVSYICSRYYRAPELIFGATDYTSSIDVWSAGCVLAELLLGQPIFPGDSGVDQLVEIIKVLGTPTREQIREMNPNYTEFKFPQIKAHPWTKDSSGTGHFTSGVRVFRPRTPPEAIALCSRLLEYTPTARLTPLEACAHSFFDELRDPNVKLPNGRDTPALFNFTTQELSSNPPLATILIPPHARIQAAASTPTNATAASDANTGDRGQTNNAASASASNST | 19 | 71 | 52 |  |
| GSK-3β D90A mutant (protein) MSGRPRTTSFAESCKPVQQPSAFGSMKVSRDKDGSKVTTVVATPGQGPDRPQEVSYTDTKVIGNGSFGVVYQAKLCDSGELVAIKKVLQAKRFKNRELQIMRKLDHCNIVRLRYFFYSSGEKKDEVYLNLVLDYVPETVYRVARHYSRAKQTLPVIYVKLYMYQLFRSLAYIHSFGICHRDIKPQNLLLDPDTAVLKLCDFGSAKQLVRGEPNVSYICSRYYRAPELIFGATDYTSSIDVWSAGCVLAELLLGQPIFPGDSGVDQLVEIIKVLGTPTREQIREMNPNYTEFKFPQIKAHPWTKDSSGTGHFTSGVRVFRPRTPPEAIALCSRLLEYTPTARLTPLEACAHSFFDELRDPNVKLPNGRDTPALFNFTTQELSSNPPLATILIPPHARIQAAASTPTNATAASDANTGDRGQTNNAASASASNST | 83 | 92 | 88 |  |
| wild-type (WT) GSK-3β (protein) MSGRPRTTSFAESCKPVQQPSAFGSMKVSRDKDGSKVTTVVATPGQGPDRPQEVSYTDTKVIGNGSFGVVYQAKLCDSGELVAIKKVLQDKRFKNRELQIMRKLDHCNIVRLRYFFYSSGEKKDEVYLNLVLDYVPETVYRVARHYSRAKQTLPVIYVKLYMYQLFRSLAYIHSFGICHRDIKPQNLLLDPDTAVLKLCDFGSAKQLVRGEPNVSYICSRYYRAPELIFGATDYTSSIDVWSAGCVLAELLLGQPIFPGDSGVDQLVEIIKVLGTPTREQIREMNPNYTEFKFPQIKAHPWTKDSSGTGHFTSGVRVFRPRTPPEAIALCSRLLEYTPTARLTPLEACAHSFFDELRDPNVKLPNGRDTPALFNFTTQELSSNPPLATILIPPHARIQAAASTPTNATAASDANTGDRGQTNNAASASASNST |  |  |  | L803-mts (SEQ ID NO:5) competes with various substrates |
| GSK-3β K91A mutant (protein) MSGRPRTTSFAESCKPVQQPSAFGSMKVSRDKDGSKVTTVVATPGQGPDRPQEVSYTDTKVIGNGSFGVVYQAKLCDSGELVAIKKVLQDARFKNRELQIMRKLDHCNIVRLRYFFYSSGEKKDEVYLNLVLDYVPETVYRVARHYSRAKQTLPVIYVKLYMYQLFRSLAYIHSFGICHRDIKPQNLLLDPDTAVLKLCDFGSAKQLVRGEPNVSYICSRYYRAPELIFGATDYTSSIDVWSAGCVLAELLLGQPIFPGDSGVDQLVEIIKVLGTPTREQIREMNPNYTEFKFPQIKAHPWTKDSSGTGHFTSGVRVFRPRTPPEAIALCSRLLEYTPTARLTPLEACAHSFFDELRDPNVKLPNGRDTPALFNFTTQELSSNPPLATILIPPHARIQAAASTPTNATAASDANTGDRGQTNNAASASASNST | 119 | 161 | 140 |  |
| GSK-3β R92A mutant (protein) MSGRPRTTSFAESCKPVQQPSAFGSMKVSRDKDGSKVTTVVATPGQGPDRPQEVSYTDTKVIGNGSFGVVYQAKLCDSGELVAIKKVLQDKAFKNRELQIMRKLDHCNIVRLRYFFYSSGEKKDEVYLNLVLDYVPETVYRVARHYSRAKQTLPVIYVKLYMYQLFRSLAYIHSFGICHRDIKPQNLLLDPDTAVLKLCDFGSAKQLVRGEPNVSYICSRYYRAPELIFGATDYTSSIDVWSAGCVLAELLLGQPIFPGDSGVDQLVEIIKVLGTPTREQIREMNPNYTEFKFPQIKAHPWTKDSSGTGHFTSGVRVFRPRTPPEAIALCSRLLEYTPTARLTPLEACAHSFFDELRDPNVKLPNGRDTPALFNFTTQELSSNPPLATILIPPHARIQAAASTPTNATAASDANTGDRGQTNNAASASASNST | 41 | 49 | 60 |  |
